# T1: yeast KDM5 PHD finger (S. cerevisiae, Zn2+-bound; 15N-labelled)
# T1 chain: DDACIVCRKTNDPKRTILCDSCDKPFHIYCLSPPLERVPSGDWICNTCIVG
# B1: H3K4me0 peptide (aa 1-12 of H3) (peptide, UniProt P68431 2-13, looked up)
# peptide: ARTKQTARKSTG
# Experiments:
# yeast KDM5 PHD finger = biological target: T1, yeast KDM5 PHD finger; experiment: NMR titration
# human KDM5D PHD1 finger = human KDM5D PHD1 finger (human, Zn2+-bound; 15N-labelled); experiment: NMR titration
binder,measurement,setting,value
B1,Kd,yeast KDM5 PHD finger,117 µM
same,Kd,human KDM5D PHD1 finger,3500 µM
